We go through three molecules from article PMC12806343, “Aptamer‐Engineered Ellipsometry for Clinical Detection of BALF‐Derived Exosomes: Multi‐Level Engineering for Prognostic Evaluation of Immunotherapy Responses”.

For one data set, the target named is recombinant human PD-L1 (Homo sapiens, UniProt Q9NZQ7 19-238). Put plainly: BLI; PD-L1 immobilized on AR probe; BLI: 1x PBS pH 7.4, aptamers 3-12 uM, 300 s association, 600 s dissociation, temperature not stated; EMSA: TBE-PAGE, binding buffer composition not given. The note with it: protein: commercial; stem-loop. (Biolayer interferometry detects binding as a change in optical thickness at a sensor tip.)
Sequence of recombinant human PD-L1 (Q9NZQ7 19-238): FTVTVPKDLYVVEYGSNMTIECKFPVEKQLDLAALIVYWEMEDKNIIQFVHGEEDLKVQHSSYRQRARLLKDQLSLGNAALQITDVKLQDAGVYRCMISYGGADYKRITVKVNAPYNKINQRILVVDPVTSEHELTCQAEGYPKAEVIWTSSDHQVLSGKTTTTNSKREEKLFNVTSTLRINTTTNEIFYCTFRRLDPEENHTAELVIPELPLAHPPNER

Data set [1] concerns the target PD-L1 on MDA-MB-231-derived exosomes (UniProt Q9NZQ7 19-290). Put plainly: ellipsometry (DP-SIS); exosomes 1e1-1e8 particles/mL; no detectable signal; BLI: 1x PBS pH 7.4, aptamers 3-12 uM, 300 s association, 600 s dissociation, temperature not stated; EMSA: TBE-PAGE, binding buffer composition not given. To be noted: protein: native; stem-loop. In general terms: In EMSA bound probe runs differently from free probe, usually more slowly.

Sequence of PD-L1 on MDA-MB-231-derived exosomes (Q9NZQ7 19-290): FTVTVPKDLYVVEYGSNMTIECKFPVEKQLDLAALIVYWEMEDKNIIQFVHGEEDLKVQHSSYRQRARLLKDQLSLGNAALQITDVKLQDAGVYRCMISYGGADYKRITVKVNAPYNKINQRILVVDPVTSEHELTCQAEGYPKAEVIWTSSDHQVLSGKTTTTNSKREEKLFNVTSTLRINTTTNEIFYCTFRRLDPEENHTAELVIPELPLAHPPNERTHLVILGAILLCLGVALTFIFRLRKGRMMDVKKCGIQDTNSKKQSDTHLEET

As for TGACACCGTACCTGCTCTCCGCGCGAAGCACGCCAGGGACTAT (structured_DNA, 5' amine (NH2)) [Apt13], the Kd in the data set with recombinant human PD-L1 was about 714 nM.
Regarding GTACCTGCTCTCCGCGCGAAGCACGCCAGGGACT (structured_DNA, 5' amine (NH2)) [Tr-Apt13], the Kd with recombinant human PD-L1 is about 991 nM.
For the molecule ATAGTCCCTGGCGTGCTTGGTCGGCAGAGCAGGTACGGTGTCA (structured_DNA, 5' amine (NH2)) [Apt45], the Kd with recombinant human PD-L1 is about 186 nM. For the same molecule, the binding result in data set [1] was “no binding”.

For orientation: Kd means a measure of binding affinity in units of concentration.
